{
  "source": "IntAct's records for PubMed 23804756",
  "parents": {"B1": {"name": "MIF4G domain-containing protein (Homo sapiens), A9UHW6 (parent)", "chain": "MGEPSREEYKIQSFDAETQQLLKTALKDPGAVDLEKVANVIVDHSLQDCVFSKEAGRMCYAIIQAESKQAGQSVFRRGLLNRLQQEYQAREQLRARSLQGWVCYVTFICNIFDYLRVNNMPMMALVNPVYDCLFRLAQPDSLSKEEEVDCLVLQLHRVGEQLEKMNGQRMDELFVLIRDGFLLPTGLSSLAQLLLLEIIEFRAAGWKTTPAAHKYYYSEVSD"}},
  "data": [
    {"variants_of": "B1", "details": "with slbp_human SLBP", "values": [
      {"variant": "R77A;N81A;Q84A", "effect of a mutation on the interaction": "decreasing interaction strength"}
    ]}
  ]
}
